Data on 1 substance can be found in US20240207377A1.

The target of this assay is Recombinant Human TACE/ADAM17 (930-ADB, R&D Systems) (human) (UniProt P78536). Description: cell-based or functional assay.
UniProt P78536, sequence (P78536 215-671 limits assumed): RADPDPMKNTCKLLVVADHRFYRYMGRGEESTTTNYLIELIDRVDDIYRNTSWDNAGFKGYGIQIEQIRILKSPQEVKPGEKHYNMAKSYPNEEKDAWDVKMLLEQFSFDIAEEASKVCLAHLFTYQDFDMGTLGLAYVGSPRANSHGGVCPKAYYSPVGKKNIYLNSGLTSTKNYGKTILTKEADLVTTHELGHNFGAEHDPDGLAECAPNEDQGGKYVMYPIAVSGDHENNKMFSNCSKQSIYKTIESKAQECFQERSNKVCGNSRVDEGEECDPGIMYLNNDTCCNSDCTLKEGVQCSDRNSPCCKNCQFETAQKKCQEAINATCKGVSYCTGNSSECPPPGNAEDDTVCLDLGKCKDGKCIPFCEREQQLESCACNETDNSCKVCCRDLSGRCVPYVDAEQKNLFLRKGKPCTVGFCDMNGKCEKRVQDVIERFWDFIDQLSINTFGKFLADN

As to “human alpha-1-antitrypsin (AAT) (Sigma Aldrich, batch A6150) (from UniProt P01009 25-418)”, the TACE activity in a cell-free assay (fluorogenic peptide substrate Mca-PLAQAV-Dpa-RSSSR-NH2), IC50 amounted to 15.3 µM.
